{"source": "patent US20170355777A1", "about": "(UNIVERSITY OF LEICESTER, published 2017)", "data": [{"molecular_target": "T1, recombinant MLP (rMLP) C-terminal fusion protein: N-terminal histidine tag fused to residues 279-431 of human … (human)", "T1 construct": "Expressed in E. coli from pRSETB and purified on a nickel column; ran at 28 kDa; also called rMLP C-terminal protein; recombinant MLP C-terminal protein", "T1 chain": "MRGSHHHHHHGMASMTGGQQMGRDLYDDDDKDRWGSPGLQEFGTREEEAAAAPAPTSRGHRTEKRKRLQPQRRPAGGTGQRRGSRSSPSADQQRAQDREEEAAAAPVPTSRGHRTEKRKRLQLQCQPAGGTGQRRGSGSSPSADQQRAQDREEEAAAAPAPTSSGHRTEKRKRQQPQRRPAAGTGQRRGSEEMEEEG", "assay": "KD (binding to rMLP); method not described at the table", "units": {"Kd": "pM"}, "values": [{"binder": "anti-MLP monoclonal antibody αMLP Clone B (hybridoma ATCC PTA-121700) (antibody, IgG2a, V domains shown, also called mAb clone B) VH: EVQLQQSGPELVKPGASVKISCKASGYSFTGFYIHWVKQSHVKSLEWIGRIHPYNGAPTYNQNFKDRARLTVHESSSTAYMEFFGLTSEDSAVYYCARERVYYYGSTYEFDFWGQGTTLTVSS VL: DVLMTQTPLSLPVSLGDQASISCRSGQSIVHSSGVTYLSWYLQKPGQSPKLLIYKVFYRFSGVPDRFSGSGSGTDFTLKISRVEAEDLGVYYCFQGSHVPPTFGTGTKLELK", "Kd": "< 1000"}, {"binder": "anti-MLP monoclonal antibody αMLP Clone 11 (hybridoma ATCC PTA-121699) (antibody, IgG2b, V domains shown, also called mAb clone 11) VH: EVQLQQSGPELVKPGASVKISCKASGYAFTGFYIHWMKQSHVKSLEWIGRIHPYNGATSYNQNFKDRASLTVDESSSTAYMEFYGLTSEDSAVYYCARERVYYYGSTYEFDSWGQGTTLTVSS VL: DVLMTQTPLSLPVSLGDQASISCRSGQSIVHTSGVTYLSWYLQKPGQSPKLLIYKVFYRFSGVPDRFSGSGSGTDFTLKISRVESEDLGVYYCFQGSHVPPTFGAGTKLELK", "Kd": 200}, {"binder": "anti-MLP monoclonal antibody αMLP Clone C (hybridoma ATCC PTA-121701) (antibody, IgG1, V domains shown, also called 2(C); mAb clone C) VH: DVKLQESGGGLVQPGGSMKLSCVASGFTFSNYWMNWVRQSPEKGLEWVAEIRLKSNNYAINYAESVKGRFTISRDDSKSSVYLDMNNLRAEDTGIYYCTSYYGSSLYYLDYWGQGTTLTVSS VL: QIVLTQSPVIMSASPGEKVTISCSASSSVSNMYWYQQKPGSSPKAWIYRTSNLASGVPARFSGSGSGTSYSLTISSMEAEDAATYYCHQYQSYPRTFGAGTKLEIK", "Kd": "< 1000"}]}]}
